Laboratory results reported in paper PMC5587665.

Columns and labels:
[1] = target: GTP-γS-tubulin-dimer (porcine brain tubulin), P02550;Q767L7; test: SEC-MALS
[2] = target: GTP-γS-tubulin-dimer (porcine brain tubulin), P02550;Q767L7; test: DLS; conditions: room temperature; 1:1 mixture
[3] = target: GTP-γS-tubulin-dimer (porcine brain tubulin) (porcine) (UniProt P02550); test: SEC; size-exclusion chromatography at 4 °C; tubulin with the GTP analog GTP-γS; 1:1 mixture of each 1 mM (so in the source) CP525 and tubulin-dimer; fractions checked by SDS-PAGE

Row | other: Molar mass of the mixture, Peak 1 [1] [kDa] | other: Molar mass of the mixture, Peak 2 [1] [kDa] | other: %Polyd (polydispersity of the mixture) [2] [%] | other: MW-R (of the mixture) [2] [kDa] | other: Rh (hydrodynamic radius of the mixture) [2] [nm] | stoichiometry N (CP525:tubulin-dimer) [3] | Substance
1 | 214 | 113 | 52 | 524 | 8.6 |  | CP525 (7 x His-tag and human CRMP2 residues 1-525) (from UniProt Q16555) T246A; N247A
2 | 95.9 | 86.2 | 64.9 | 538 | 8.8 |  | CP525 (7 x His-tag and human CRMP2 residues 1-525) (from UniProt Q16555) K483A; R485A; R487A
3 |  |  |  |  |  | 1 | CP525 (7 x His-tag and human CRMP2 residues 1-525) (from UniProt Q16555 1-525) (domain or fragment)
